In patent US20060140870A1, “Method for assessing tumor response to cancer treatment” (General Electric Company, priority 2004, published 2006):

Assay: Relaxivity (T1) of the contrast agent as a measure of molecular conformation
Assay type: physicochemical
Conditions: low for an elongated conformation, high for a globular (folded) one

## Polylysine-Gd-DTPA [Gd- DTPA polylysine]
  relaxivity: about 8 sec.−1 mM−1

## albumen
  relaxivity: about 15 sec.−1 mM−1
